Laboratory results published in article PMC12583548.

How the values were obtained:
[1] = biological target: HAstV1 capsid spike domain mutant K467A, 10x histidine-tagged (human astrovirus 1 (HAstV1)) (UniProt O12792); experiment: SEC; Superdex 200 Increase 10/300 GL, HAstV1 spike mutants alone
[2] = biological target: HAstV1 capsid spike domain mutant K467A, 10x histidine-tagged (human astrovirus 1 (HAstV1)) (UniProt O12792); experiment: SEC; Superdex 200 Increase 10/300 GL; traces of the HAstV1 spike mutants overlayed with BioRad gel filtration standards
[3] = biological target: HAstV1 capsid spike domain mutant K467H, Avitag-biotinylated (human astrovirus 1 (HAstV1)) (UniProt O12792); experiment: as above
[4] = biological target: HAstV1 capsid spike domain mutant K514A, 10x histidine-tagged (human astrovirus 1 (HAstV1)) (UniProt O12792); experiment: SEC; Superdex 200 Increase 10/300 GL, HAstV1 spike mutants alone
[5] = biological target: HAstV1 capsid spike domain mutant K514A, 10x histidine-tagged (human astrovirus 1 (HAstV1)) (UniProt O12792); experiment: SEC; Superdex 200 Increase 10/300 GL; traces of the HAstV1 spike mutants overlayed with BioRad gel filtration standards
[6] = biological target: HAstV1 capsid spike domain mutant Y475A, 10x histidine-tagged (human astrovirus 1 (HAstV1)) (UniProt O12792); experiment: SEC; Superdex 200 Increase 10/300 GL, HAstV1 spike mutants alone
[7] = biological target: HAstV1 capsid spike domain mutant Y475A, 10x histidine-tagged (human astrovirus 1 (HAstV1)) (UniProt O12792); experiment: SEC; Superdex 200 Increase 10/300 GL; traces of the HAstV1 spike mutants overlayed with BioRad gel filtration standards
[8] = biological target: HAstV1 capsid spike domain triple mutant 3A (K467A, Y475A, K514A), 10x histidine-tagged (human astrovirus 1 (HAstV1)) (UniProt O12792); experiment: SEC; Superdex 200 Increase 10/300 GL, HAstV1 spike mutants alone
[9] = biological target: HAstV1 capsid spike domain triple mutant 3A (K467A, Y475A, K514A), 10x histidine-tagged (human astrovirus 1 (HAstV1)) (UniProt O12792); experiment: SEC; Superdex 200 Increase 10/300 GL; traces of the HAstV1 spike mutants overlayed with BioRad gel filtration standards
[10] = biological target: HAstV1 capsid spike domain, Avitag-biotinylated (human astrovirus 1 (HAstV1)) (UniProt O12792); experiment: BLI; streptavidin biosensor loaded with biotinylated HAstV1 spike; wild-type or mutant FcRn in solution (500-31.25 nM series; T149N_G151T_D153E at 2000 and 1000 nM); pH 7.0 (0.1 M sodium phosphate, 150 mM NaCl, 0.05% Tween-20), 25 °C; 1:1 model; triplicate
[11] = biological target: HAstV1 capsid spike domain mutant K467H, Avitag-biotinylated (human astrovirus 1 (HAstV1)) (UniProt O12792); experiment: BLI; streptavidin biosensors loaded with biotinylated HAstV1 K467H spike, dipped into FcRn (2000 nM); pH 7.0 (0.1 M sodium phosphate, 150 mM NaCl, 0.05% Tween-20), 25 °C; 1:1 model; average of three replicates
[12] = biological target: HAstV1 capsid spike domain mutant K467H, Avitag-biotinylated (human astrovirus 1 (HAstV1)) (UniProt O12792); experiment: BLI; streptavidin biosensors loaded with biotinylated HAstV1 K467H spike, dipped into FcRn (1000, 500, 250 nM); pH 5.0 (0.1 M sodium acetate, 150 mM NaCl, 0.05% Tween-20), 25 °C; 1:1 model; average of three replicates
[13] = biological target: HAstV1 capsid spike domain, Avitag-biotinylated (human astrovirus 1 (HAstV1)) (UniProt O12792); experiment: BLI; biosensors loaded with biotinylated HAstV1 spike (streptavidin, as in Fig. 1a); human or mouse FcRn in solution, 500, 250, 125, 62.5 nM; pH 7.0 (0.1 M sodium phosphate, 150 mM NaCl, 0.05% Tween-20), 25 °C; 1:1 model; average of three replicates
[14] = biological target: HAstV1 capsid spike domain mutant K514A, 10x histidine-tagged (human astrovirus 1 (HAstV1)) (UniProt O12792); experiment: BLI; HIS1K biosensors loaded with 10x histidine-tagged spike, FcRn in solution at 1000, 500, 250, 125 and 62.5 nM; pH 7.0 buffer, 25 °C; 1:1 model
[15] = biological target: HAstV2 capsid spike domain, 10x histidine-tagged (human astrovirus 2 (HAstV2)); experiment: as above
[16] = biological target: HAstV4 capsid spike domain, 10x histidine-tagged (human astrovirus 4 (HAstV4)); experiment: as above
[17] = biological target: HAstV5 capsid spike domain, 10x histidine-tagged (human astrovirus 5 (HAstV5)); experiment: as above
[18] = biological target: HAstV6 capsid spike domain, 10x histidine-tagged (human astrovirus 6 (HAstV6)); experiment: as above
[19] = biological target: HAstV1 capsid spike domain mutant K467A, 10x histidine-tagged (human astrovirus 1 (HAstV1)) (UniProt O12792); experiment: BLI; HIS1K biosensors loaded with histidine-tagged spike, FcRn in solution at a single concentration of 2000 nM, kinetics estimated from that one concentration; pH 7.0 buffer, 25 °C; 1:1 model
[20] = biological target: HAstV1 capsid spike domain mutant Y475A, 10x histidine-tagged (human astrovirus 1 (HAstV1)) (UniProt O12792); experiment: as above
[21] = biological target: HAstV3 capsid spike domain, 10x histidine-tagged (human astrovirus 3 (HAstV3)); experiment: as above
[22] = biological target: HAstV7 capsid spike domain, 10x histidine-tagged (human astrovirus 7 (HAstV7)); experiment: as above
[23] = biological target: HAstV1 capsid spike domain mutant K467H, Avitag-biotinylated (human astrovirus 1 (HAstV1)) (UniProt O12792); experiment: BLI; streptavidin biosensors loaded with Avitag-biotinylated spike, FcRn in solution (500-62.5 nM for the wild type); pH 7.0 (0.1 M sodium phosphate, 150 mM NaCl, 0.05% Tween-20), 25 °C; 1:1 model

HAstV1 capsid spike domain mutant K467A, 10x histidine-tagged (from UniProt O12792 433-645) (domain or fragment)
stoichiometry N [1]: 2 | stoichiometry N [2]: 2

HAstV1 capsid spike domain mutant K467H, Avitag-biotinylated (from UniProt O12792 433-645) (domain or fragment)
stoichiometry N [3]: 2

HAstV1 capsid spike domain mutant K514A, 10x histidine-tagged (from UniProt O12792 433-645) (domain or fragment)
stoichiometry N [4]: 2 | stoichiometry N [5]: 2

HAstV1 capsid spike domain mutant Y475A, 10x histidine-tagged (from UniProt O12792 433-645) (domain or fragment)
stoichiometry N [6]: 2 | stoichiometry N [7]: 2

HAstV1 capsid spike domain triple mutant 3 A (K467A, Y475A, K514A), 10x histidine-tagged (from UniProt O12792 433-645) (domain or fragment)
stoichiometry N [8]: 2

HAstV1 capsid spike domain triple mutant 3A (K467A, Y475A, K514A), 10x histidine-tagged (from UniProt O12792 433-645) (domain or fragment)
stoichiometry N [9]: 2

human FcRn mutant D153E (ectodomain heterodimer with β2 microglobulin) (from UniProt P55899 24-297; P61769 21-119) (receptor)
koff [10]: 0.14 s⁻¹ | kon [10]: 85000 M⁻¹ s⁻¹

human FcRn mutant T149N_G151T (ectodomain heterodimer with β2 microglobulin) (from UniProt P55899 24-297; P61769 21-119) (receptor)
koff [10]: 0.034 s⁻¹ | kon [10]: 74000 M⁻¹ s⁻¹

human FcRn mutant T149N_G151T_D153E (ectodomain heterodimer with β2 microglobulin) (from UniProt P55899 24-297; P61769 21-119) (receptor)
Kd [10]: 11.9 µM | koff [10]: 0.37 s⁻¹ | kon [10]: 31000 M⁻¹ s⁻¹

human neonatal Fc receptor (FcRn), wild-type ectodomain heterodimer of αFcRn and β2 microglobulin (from UniProt P55899 24-297; P61769 21-119)
koff [11]: 0.24 s⁻¹ | kon [11]: 11000 M⁻¹ s⁻¹ | koff [12]: 0.051 s⁻¹ | kon [12]: 66000 M⁻¹ s⁻¹ | koff [13]: 0.018 s⁻¹ | kon [13]: 94000 M⁻¹ s⁻¹ | koff [10]: 0.0223 s⁻¹ | kon [10]: 93000 M⁻¹ s⁻¹

neonatal Fc receptor (FcRn), recombinant human ectodomain heterodimer of FcRn α-chain and β2 microglobulin, with tags (from UniProt P55899;P61769)
Kd [14]: 2.5 µM | koff [14]: 0.056 s⁻¹ | koff [15]: 0.048 s⁻¹ | Kd [16]: 0.23 µM | Kd [17]: 0.152 µM | koff [17]: 0.006 s⁻¹ | koff [18]: 0.015 s⁻¹ | Kd [19]: 15 µM | koff [19]: 0.284 s⁻¹ | Kd [20]: 8 µM | koff [20]: 0.22 s⁻¹ | Kd [21]: 181 µM | koff [21]: 0.099 s⁻¹ | Kd [22]: 10.3 µM | koff [22]: 0.013 s⁻¹ | Kd [23]: 22.5 µM
